According to patent US20230250157A1:

Tests used:
Assay in all cases: ELISA
BM4831 RBD = biological target: BM4831 RBD
BtKY72 RBD = biological target: BtKY72 RBD
Khosta2 RBD = biological target: Khosta2 RBD
LyRa3 RBD = biological target: LyRa3 RBD
Pang17 RBD = biological target: Pang17 RBD
RaTG13 RBD = biological target: RaTG13 RBD
Rf1 RBD = biological target: Rf1 RBD
RmYN02 RBD = biological target: RmYN02 RBD
Rs4081 RBD = biological target: Rs4081 RBD
SHC014 RBD = biological target: SHC014 RBD
Yun11 RBD = biological target: Yun11 RBD
RsSTT200 RBD = biological target: RsSTT200 RBD

Measured: EC50

C144 IgG
> 10 µg/mL: BM4831 RBD | BtKY72 RBD | Khosta2 RBD | LyRa3 RBD | Pang17 RBD | RaTG13 RBD | Rf1 RBD | RmYN02 RBD | Rs4081 RBD | SHC014 RBD | Yun11 RBD

S309 IgG
> 10 µg/mL: BtKY72 RBD | Rf1 RBD | RmYN02 RBD | Rs4081 RBD | Yun11 RBD

C102 IgG
> 10 µg/mL: BM4831 RBD | BtKY72 RBD | Khosta2 RBD | LyRa3 RBD | Pang17 RBD | Rf1 RBD | RmYN02 RBD | Rs4081 RBD | RsSTT200 RBD | SHC014 RBD | Yun11 RBD
